Reference: the supplement of paper PMC9732359
± gives the uncertainty stated by the source.

Experiment: protein stability index of a GFP-peptide fusion (yeast GPS) (PSI 1-4); higher = more stable; sorted into four equal gates, so the index is relative within each strain
In short: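 Tiled yeast protein peptides of 17 residues were each joined downstream of GFP, on plasmids that also express Cherry. The pooled library was maintained in yeast, and mid-log cultures in leucine-free medium were sorted into four equal gates on the GFP/Cherry ratio. Plasmids from every gate were amplified by PCR and sequenced on Illumina, with barcodes linking reads to strains. The protein stability index of a peptide is its gate-number-weighted read frequency summed over the gates.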

Row | Sequence | protein stability index (doa10∆) | protein stability index (pdr5∆) | protein stability index (san1∆) | protein stability index (ubr1∆)
1 | KLEKLRNEKRMFLEFQS [SMC2] | 2.88 ± 0.13 | 3.3 ± 0.08 | 3.15 ± 0.12 | 3.49 ± 0.092
2 | RKHHKKGITEEVAKKRS [RPL24A] | 3.36 ± 0.12 | 3.45 ± 0.2 | 3.19 ± 0.17 | 3.02 ± 0.092
3 | SHDASRSLASFEQTAFS [SIR4] | 2.86 ± 0.065 | 2.67 ± 0.049 | 2.81 ± 0.053 | 2.67 ± 0.067
4 | EVVEVQEETVVEQTAEV [RPS12] | 3.15 ± 0.1 | 3.36 ± 0.11 | 2.97 ± 0.076 | 3.24 ± 0.097
5 | TESPLKTVDSSIQPIES [SSN2] | 2.99 ± 0.066 | 2.93 ± 0.053 | 2.91 ± 0.053 | 2.93 ± 0.03
6 | HLGKGTMTMDVFNDAHV [RPN1] | 2.96 ± 0.073 | 2.98 ± 0.084 | 2.06 ± 0.12 | 2.87 ± 0.081
7 | DQDKVNFASGDNNTASN [RPB3] | 2.85 ± 0.16 | 2.36 ± 0.14 |  | 2.5 ± 0.18
8 | VAATITSSQKEPFFLVT [SRB8] | 1.8 ± 0.071 | 2.17 ± 0.086 | 2.12 ± 0.083 | 2.21 ± 0.075
9 | FVDLVEHFLKLNIDFGS [YML103C/NUP188] | 2.53 ± 0.067 | 2.46 ± 0.06 | 2.54 ± 0.11 | 2.84 ± 0.094
10 | PELNVSLNLTDDVISNA [MCD1] | 3.09 ± 0.04 | 3.21 ± 0.042 | 3.1 ± 0.036 | 3.15 ± 0.032
11 | SAAAAGNRNSSSVFLPS [BRR2] | 3.13 ± 0.062 | 3.17 ± 0.063 | 3.13 ± 0.046 | 3.15 ± 0.059
12 | KENEESLTPTQSDSAKV [PRP28] | 3.13 ± 0.088 | 3.35 ± 0.063 | 2.9 ± 0.095 | 3.11 ± 0.053
13 | GSSKPAFSFGAKPDEKK [YJL041W/NSP1] | 3.19 ± 0.17 | 3.18 ± 0.14 |  | 3.29 ± 0.17
14 | ESVELPLTHPELYEEMG [RPT2] | 2.63 ± 0.077 | 2.94 ± 0.074 | 2.78 ± 0.07 | 2.74 ± 0.037
15 | QKEEGRSFTKAIEDAKK [YLR335W/NUP2] | 3.1 ± 0.11 | 3.06 ± 0.085 | 3.05 ± 0.086 | 2.8 ± 0.069
16 | TGNGTTTTSNTSGTNIA [YOR098C/NUP1] | 2.96 ± 0.045 | 2.69 ± 0.047 | 2.46 ± 0.056 | 2.41 ± 0.035
17 | NGFMESAIVNEDGLLEG [SOH1] |  |  | 2.86 ± 0.23 | 
18 | PNMSICIFGDAFDVDRA [RPL1A] | 2.78 ± 0.071 | 2.52 ± 0.072 | 1.78 ± 0.084 | 2.4 ± 0.089
19 | ELIKNYITARIMAKRPF [FAS1] | 2.93 ± 0.13 | 2.58 ± 0.26 | 3.03 ± 0.046 | 2.78 ± 0.21
20 | SAPKISSEIDRENVKSK [SIR4] |  |  |  | 3.35 ± 0.15
21 | ATSQYLKQDLKKISSFK [YGL172W/NUP49] | 2.9 ± 0.064 | 2.56 ± 0.064 | 3.04 ± 0.051 | 3.06 ± 0.042
22 | GQFVTLGCTLVTLLANV [RMP1] | 2.8 ± 0.11 | 2.89 ± 0.11 | 2.73 ± 0.1 | 2.58 ± 0.048
23 | PKCHSRENVFFQSQQRR [RPB9] | 3.14 ± 0.088 | 2.65 ± 0.081 | 2.22 ± 0.089 | 2.65 ± 0.054
24 | NNNHKDKKLLRRLLNLY [SWI1] | 2.88 ± 0.054 | 2.93 ± 0.054 | 2.92 ± 0.058 | 3.03 ± 0.054
25 | ALLKLSVKLKQKRLEAG [DIS3] | 1.11 ± 0.077 | 1.37 ± 0.085 | 1.04 ± 0.21 | 1.15 ± 0.099
26 | GDYDSHDISRYVRAKFL [PRP8] | 2.08 ± 0.077 | 2.11 ± 0.086 | 1.66 ± 0.16 | 1.43 ± 0.055
27 | ASFYSVNTEKKTIEVTA [RPN3] |  | 1.29 ± 0.11 |  | 1.65 ± 0.28

Row | Sequence | protein stability index (doa10∆) | protein stability index (pdr5∆) | protein stability index (san1∆) | protein stability index (ubr1∆)
28 | TANDQYSSILGNSFNKS [YCG1] | 3.13 ± 0.069 | 3.18 ± 0.067 | 3.31 ± 0.038 | 3.46 ± 0.058
29 | TDPKELYNNAHVYARDL [RPC40] | 3.51 ± 0.23 | 2.94 ± 0.11 | 2.93 ± 0.13 | 
30 | NLKLISVSLVDEFPSEL [SIR4] | 2.57 ± 0.061 | 2.6 ± 0.052 | 2.5 ± 0.06 | 2.6 ± 0.033
31 | MAKKEGTPKTDSFIFDG [MED4] | 3.43 ± 0.13 | 3.22 ± 0.15 | 2.94 ± 0.17 | 3.28 ± 0.092
32 | INDPTNKEYTLVHGIFG [SIN4] | 2.1 ± 0.09 | 2.21 ± 0.091 | 2.25 ± 0.13 | 1.94 ± 0.19
33 | QQPQTNTAPGLGNTVST [YGR119C/NUP57] | 3.03 ± 0.097 | 3.34 ± 0.1 | 3.04 ± 0.073 | 3.06 ± 0.058
34 | ESQQQDESLKDEATVPN [SWI3] | 3.19 ± 0.079 | 3.36 ± 0.09 | 3.31 ± 0.15 | 3.21 ± 0.098
35 | CVDDNSKISFIDEDKLY [SSN2] | 3.59 ± 0.25 | 2.98 ± 0.1 |  | 2.82 ± 0.29
36 | KSLEDLSCQYDNTVRTS [RPO31] | 1.3 ± 0.19 | 1.31 ± 0.14 |  | 
37 | SNTNDNISIITLELESF [RGR1] | 2.54 ± 0.075 | 2.39 ± 0.081 | 2.25 ± 0.098 | 2.32 ± 0.11
38 | LGRTGSRGGVTQVRVEF [RPS28A] | 3.29 ± 0.053 | 3.19 ± 0.053 | 3.31 ± 0.047 | 3.19 ± 0.044
39 | PKKALKVKAGVRSANED [RRP43] | 2.84 ± 0.1 | 2.35 ± 0.088 | 2.81 ± 0.069 | 2.41 ± 0.051
40 | SELAVATTSVMMVNNQT [SRB6] | 3.12 ± 0.2 |  |  | 
41 | VENELLQVDVDIAGQRD [RRP42] | 1.36 ± 0.25 | 2.12 ± 0.28 |  | 1.14 ± 0.19
42 | AKKNNFIEDLAPEQQVQ [UBP6] | 2.81 ± 0.073 | 3.15 ± 0.08 | 2.99 ± 0.08 | 3.06 ± 0.065
43 | SYDCTGVNELAPIPKGR [POP1] | 2.84 ± 0.061 | 2.79 ± 0.057 | 3.01 ± 0.055 | 3 ± 0.042
44 | LMTFNAETKSYDSRGVG [YLR335W/NUP2] | 2.19 ± 0.063 | 2.65 ± 0.059 | 2.74 ± 0.054 | 2.71 ± 0.048
45 | SNDTTAFNDSCVNLSLF [SRB8] | 3.07 ± 0.065 | 2.92 ± 0.069 | 3.13 ± 0.06 | 2.34 ± 0.035
46 | EGVEYLREYLNLPEHIV [RPS10A] | 3.31 ± 0.081 | 3.32 ± 0.078 | 3.2 ± 0.072 | 3 ± 0.087
47 | NIDETSDEVSRGIPRLS [SMC4] | 3.06 ± 0.2 |  | 2.97 ± 0.22 | 
48 | PCLRKYEEFRDVAIENN [RRP43] | 2.73 ± 0.064 | 2.82 ± 0.065 | 2.9 ± 0.041 | 2.94 ± 0.047
49 | DNEQNLESDFVTGASQF [PRE2] | 2.92 ± 0.095 | 3.33 ± 0.098 | 3.23 ± 0.077 | 2.96 ± 0.076
50 | YTNSVELRSLSKKDFKI [YMR129W/POM152] | 2.41 ± 0.057 | 2.64 ± 0.058 | 2.32 ± 0.078 | 2.92 ± 0.069
51 | TPDASKPSFSFGVPNSS [YLR335W/NUP2] | 2.92 ± 0.088 | 3.14 ± 0.086 | 3.07 ± 0.068 | 2.94 ± 0.072
52 | KQFDSIFNSNKAKIIPG [SIR4] | 2.32 ± 0.046 | 2.33 ± 0.047 | 2.69 ± 0.064 | 2.65 ± 0.041
53 | EGGKNQAELLQLAVKII [YJL039C/NUP192] | 2.87 ± 0.12 | 3.28 ± 0.081 | 3.3 ± 0.2 | 2.72 ± 0.11
54 | INSIDTTESSDLKEGLQ [GRR1] | 2.54 ± 0.062 | 2.6 ± 0.046 | 3.18 ± 0.037 | 3.05 ± 0.032
